This passage reports THAP1 transcriptional activity results from the supplement of paper PMC11811203.

B1: THAP1; numbered along this chain (parent)
chain: MVQSCSAYGCKNRYDKDKPVSFHKFPLTRPSLCKEWEAAVRRKNFKPTKYSSICSEHFTPDCFKRECNNKLLKENAVPTIFLCTEPHDKKEDLLEPQEQLPPPPLPPPVSQVDAAIGLLMPPLQTPVNLSVFCDHNYTVEDTMHQRKRIHQLEQQVEKLRKKLKTAQQRCRRQERQLEKLKEVVHFQKEKDDVSERGYVILPNDYFEIVEVPA

In the series the parent is B1. Briefly: THAP1 transcriptional activity (GFP+/GFP- enrichment relative to wild-type constructs) (ratio to WT); higher = more THAP1 activity (PSMB5 reporter activation). The conditions noted are these: with PSMB5 promoter-GFP reporter. In a few lines:
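A lentiviral site-saturation library covering residues 2–213 of human THAP1, with each position changed to all 20 amino acids, was transduced in duplicate at MOI ~0.3 into THAP1-knockout HEK-293T cells with mClover3 knocked in at endogenous PSMB5. Five days later, BFP+ cells were sorted into GFP-dim and GFP-bright bins and variants were counted by Illumina sequencing of genomic DNA amplicons. Activity is the bright/dim read fold change averaged over replicates and divided by the mean of wild-type synonymous constructs.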
With MVQSCSAYGCKNRYDKDKPVKFHKFPLTRPSLCKEWEAAVRRKNFKPTKYSSICSEHFTPDCFKRECNNKLLKENAVPTIFLCTEPHDKKEDLLEPQEQLPPPPLPPPVSQVDAAIGLLMPPLQTPVNLSVFCDHNYTVEDTMHQRKRIHQLEQQVEKLRKKLKTAQQRCRRQERQLEKLKEVVHFQKEKDDVSERGYVILPNDYFEIVEVPA [S21K], the THAP1 transcriptional activity came out at 0.0427.
On to MVQSCSAYGCKNRFDKDKPVSFHKFPLTRPSLCKEWEAAVRRKNFKPTKYSSICSEHFTPDCFKRECNNKLLKENAVPTIFLCTEPHDKKEDLLEPQEQLPPPPLPPPVSQVDAAIGLLMPPLQTPVNLSVFCDHNYTVEDTMHQRKRIHQLEQQVEKLRKKLKTAQQRCRRQERQLEKLKEVVHFQKEKDDVSERGYVILPNDYFEIVEVPA [Y14F], for which the THAP1 transcriptional activity amounted to 0.5.
The figure for MVQSCSAYGCKNRYDKDKPVSFHKFPLTRPSLCKEWEAAVRRKNFKPTKYSSICSEHFTPDCFKRECNNKLLKENAVPTIFLCTEPHDKKEDLLEPQEQLKPPPLPPPVSQVDAAIGLLMPPLQTPVNLSVFCDHNYTVEDTMHQRKRIHQLEQQVEKLRKKLKTAQQRCRRQERQLEKLKEVVHFQKEKDDVSERGYVILPNDYFEIVEVPA [P101K] is 1.21; for MVQSCSAYGCKNRYDKDKPVSFHKFPLTRPSLCKEWEAAVRRKNFKPTKYSSICSEHFTPDCFKRECNNKLLKENAVPTIFLCTEPHDKKEDLLEPQEQLPPPPLPPPVSQVDAAIGLLMPPLQTPVNLSVFCDHNYTVEDTMHQRKRIHQLEQQVEKLRKKLKTAQQRNRRQERQLEKLKEVVHFQKEKDDVSERGYVILPNDYFEIVEVPA [C170N] it is 0.728.
The figure for MVQSCSAYGCKNRYDKDKPVSFHKFPLTRPSLCKEWEAAVRRKNFKPTKYSKICSEHFTPDCFKRECNNKLLKENAVPTIFLCTEPHDKKEDLLEPQEQLPPPPLPPPVSQVDAAIGLLMPPLQTPVNLSVFCDHNYTVEDTMHQRKRIHQLEQQVEKLRKKLKTAQQRCRRQERQLEKLKEVVHFQKEKDDVSERGYVILPNDYFEIVEVPA [S52K] is 0.641.
The figure for MVQSCSAYGCKNRYDKDKPVSFHKFPLTRWSLCKEWEAAVRRKNFKPTKYSSICSEHFTPDCFKRECNNKLLKENAVPTIFLCTEPHDKKEDLLEPQEQLPPPPLPPPVSQVDAAIGLLMPPLQTPVNLSVFCDHNYTVEDTMHQRKRIHQLEQQVEKLRKKLKTAQQRCRRQERQLEKLKEVVHFQKEKDDVSERGYVILPNDYFEIVEVPA [P30W] is 0.0759; for MVQSCSAYGCKNRYDKDKPVSFHKFPLTRPSLCKEWEAAVRRKNFKPTKYSSICSEHFTPDCFKRECNNKLLKENAVPTIFLCTEPHLKKEDLLEPQEQLPPPPLPPPVSQVDAAIGLLMPPLQTPVNLSVFCDHNYTVEDTMHQRKRIHQLEQQVEKLRKKLKTAQQRCRRQERQLEKLKEVVHFQKEKDDVSERGYVILPNDYFEIVEVPA [D88L] it is 1.3.
Consider MVQSCSAYGCKNRYDKDKPVSFHKFPLTRPSLCKEWEAAVRRKNFKPTKYSSICSEHFTPDCFKRECNNKLLKENAVPTIFLCTEPHDKKEDLLEPQEQLPPPPLPPPVSQVDAAIGLLMPPLQTPVNLSVFCDHNYTVEDTMHQRKRIHQLEQQVEKLRKKLKTAQQRCRRQERQLEKLKENVHFQKEKDDVSERGYVILPNDYFEIVEVPA [V183N], for which the THAP1 transcriptional activity stood at 1.17.
Under MVQSCSAYGCKNRYDKDKPVSFHKFPLTRPSLCKEWEAAVRRKNFKPTKYSSICSEHFTPDCFKRECNNKLLKENAVPTIFLCTEPHDKKEDLLEPQEQLPPPPLPPPVSQVDAAIGLLMPPLQTPVNLSTFCDHNYTVEDTMHQRKRIHQLEQQVEKLRKKLKTAQQRCRRQERQLEKLKEVVHFQKEKDDVSERGYVILPNDYFEIVEVPA [V131T] stands 0.276; under MVQSCSAYGCKNRYDKDKPVSFHKFPLTRPSLCKEWEAAVRRKNFKPTKYSSICSEHFTPDCFKRECNNKLLKENAVPTIFLCTEPHDKKEDLLEPQEQLPPPPLPPPVSQVDAAIGLLMPPLQTPVNLSVFCDHNYTVEDTMHQRKRIHQLEQQVEKLRKKLKTAPQRCRRQERQLEKLKEVVHFQKEKDDVSERGYVILPNDYFEIVEVPA [Q167P], 0.13; under MVQSCSAHGCKNRYDKDKPVSFHKFPLTRPSLCKEWEAAVRRKNFKPTKYSSICSEHFTPDCFKRECNNKLLKENAVPTIFLCTEPHDKKEDLLEPQEQLPPPPLPPPVSQVDAAIGLLMPPLQTPVNLSVFCDHNYTVEDTMHQRKRIHQLEQQVEKLRKKLKTAQQRCRRQERQLEKLKEVVHFQKEKDDVSERGYVILPNDYFEIVEVPA [Y8H], 0.464.
As to MVQSCSAYGCKNRYDKDKPVSFHKFPLTRPSLCKEWEAAVRRKNFKPTKYSSICSEHFTPDCFKRECNNKLLKENAVPTIFLCTEPHDKKEDLLAPQEQLPPPPLPPPVSQVDAAIGLLMPPLQTPVNLSVFCDHNYTVEDTMHQRKRIHQLEQQVEKLRKKLKTAQQRCRRQERQLEKLKEVVHFQKEKDDVSERGYVILPNDYFEIVEVPA [E95A], the THAP1 transcriptional activity was 1.46.
The figure for MVQSCSAYGCKNRYDKDKPVSFHKFPLTRPSLCKEWEAAVRRKNFKPTKYSSICSEHFTPDCFKRECNNKLLKENAVPTIFLCTEPHDKKEDLLEPQEQLPPPPLPPPVSQVDAAIGLLMPPLQTPVNLSVFCDHNYTYEDTMHQRKRIHQLEQQVEKLRKKLKTAQQRCRRQERQLEKLKEVVHFQKEKDDVSERGYVILPNDYFEIVEVPA [V139Y] is 0.59; for MVQSCSAYGCKNRYDKDKPVSFHKFPLTRPSLCKEWEAAVRRKNFKPTKYSSICSEHFTPDCFKRECNNKLLKENAVPTIFLCTEPHDKKEDLLEPQEQLPPPPLPPPVSQVDAAIGLLMPPLQTPVNLSVFCDHNYTVEDTMHQRKRIHQLEQQVEKLRKKLKTAQQRCRRAERQLEKLKEVVHFQKEKDDVSERGYVILPNDYFEIVEVPA [Q173A] it is 0.888.
The figure for MVQSCSAYGCKNRYDKDKPVSFHKFPLTRPSLCKEWEAAVRRKNFKPTKYSSICSEHFTPDCFKRECNNDLLKENAVPTIFLCTEPHDKKEDLLEPQEQLPPPPLPPPVSQVDAAIGLLMPPLQTPVNLSVFCDHNYTVEDTMHQRKRIHQLEQQVEKLRKKLKTAQQRCRRQERQLEKLKEVVHFQKEKDDVSERGYVILPNDYFEIVEVPA [K70D] is 0.0985; for MVQSCSAYGCKNRYDKDKPVSFHKFPLTRPSLCKEWEAAVRRKNFKPTKYSSICSEHFTPDCFKRECNNKLLKENAVPTIFLCYEPHDKKEDLLEPQEQLPPPPLPPPVSQVDAAIGLLMPPLQTPVNLSVFCDHNYTVEDTMHQRKRIHQLEQQVEKLRKKLKTAQQRCRRQERQLEKLKEVVHFQKEKDDVSERGYVILPNDYFEIVEVPA [T84Y] it is 1.82; for MVQSCSAYGCKNRYDKDKPVSFHKFPLTRPSLCKEWEAAVRRKNFKPTKYSSICSEHFTPDCFKRECNNKLLKENAVPTIFLCEEPHDKKEDLLEPQEQLPPPPLPPPVSQVDAAIGLLMPPLQTPVNLSVFCDHNYTVEDTMHQRKRIHQLEQQVEKLRKKLKTAQQRCRRQERQLEKLKEVVHFQKEKDDVSERGYVILPNDYFEIVEVPA [T84E] it is 4.49.
The figure for MVQSCSAYGCKNRYDKDKPVSFHKFPLTRPSLCKEWEAAVRRKNFKPTKYSSICSWHFTPDCFKRECNNKLLKENAVPTIFLCTEPHDKKEDLLEPQEQLPPPPLPPPVSQVDAAIGLLMPPLQTPVNLSVFCDHNYTVEDTMHQRKRIHQLEQQVEKLRKKLKTAQQRCRRQERQLEKLKEVVHFQKEKDDVSERGYVILPNDYFEIVEVPA [E56W] is 0.249; for MVQSCSAYGCKNRYDKDKPVSFHKFPLTRPSLCKEWEAAVRHKNFKPTKYSSICSEHFTPDCFKRECNNKLLKENAVPTIFLCTEPHDKKEDLLEPQEQLPPPPLPPPVSQVDAAIGLLMPPLQTPVNLSVFCDHNYTVEDTMHQRKRIHQLEQQVEKLRKKLKTAQQRCRRQERQLEKLKEVVHFQKEKDDVSERGYVILPNDYFEIVEVPA [R42H] it is 0.105; for MVQSCSAYGCKNRYDKDKPVSFHKFPLTRPSLCKEWEAAVRRKNFKPTKYSSICSEHFTPDCFKRECNNKLLKENAVPTIFLCTEPHDKKEDLLEPQEQLPPPPLPPPVSQVDAAIGLLMPPLQTPVNLSVFCDHNYTVEDTMHQRKRIHQLEQQVEKLRKKLKTAQQRCRRQERQLEKLKEVVHFQKEKDDVSEREYVILPNDYFEIVEVPA [G197E] it is 1.
Take MVQSCSAYGCKNRYDKDKPVSFHKFPLTRPSLCKEWEAAVRRKNFQPTKYSSICSEHFTPDCFKRECNNKLLKENAVPTIFLCTEPHDKKEDLLEPQEQLPPPPLPPPVSQVDAAIGLLMPPLQTPVNLSVFCDHNYTVEDTMHQRKRIHQLEQQVEKLRKKLKTAQQRCRRQERQLEKLKEVVHFQKEKDDVSERGYVILPNDYFEIVEVPA [K46Q]: the THAP1 transcriptional activity worked out at 0.581.
In the case of MVQSCSAYGCKNRYDKDKPVSFHKFPLTRPSLCKEWEAAVRRKNFKPTKYSSICSEHFTPDCFKRECNNKLLKENAVPTIFLCTEPHDKKEDLLEPQEQLPPPPLPPPVSQVDAAIGLLMPPLQTPVNLSVFCDHNYTVEDTMHQRKRIHQLEQQVEKFRKKLKTAQQRCRRQERQLEKLKEVVHFQKEKDDVSERGYVILPNDYFEIVEVPA [L159F], the THAP1 transcriptional activity was 0.337.
For MVQSCSIYGCKNRYDKDKPVSFHKFPLTRPSLCKEWEAAVRRKNFKPTKYSSICSEHFTPDCFKRECNNKLLKENAVPTIFLCTEPHDKKEDLLEPQEQLPPPPLPPPVSQVDAAIGLLMPPLQTPVNLSVFCDHNYTVEDTMHQRKRIHQLEQQVEKLRKKLKTAQQRCRRQERQLEKLKEVVHFQKEKDDVSERGYVILPNDYFEIVEVPA [A7I], the THAP1 transcriptional activity amounted to 0.165.
The figure for MVQSCSAYGCKNRYDKDKPVSFHKFPLTRPSLCKEWEAAVRRKNFKPTKYSSICSEHFTPDCFKRECNNKLLKENAVPTIFLCTEPHDKKEDLLEPQEQLPPPPLPPPVSQVDAAIGLLMPPLQTPVNLMVFCDHNYTVEDTMHQRKRIHQLEQQVEKLRKKLKTAQQRCRRQERQLEKLKEVVHFQKEKDDVSERGYVILPNDYFEIVEVPA [S130M] is 0.164; for MVQSCSAYGFKNRYDKDKPVSFHKFPLTRPSLCKEWEAAVRRKNFKPTKYSSICSEHFTPDCFKRECNNKLLKENAVPTIFLCTEPHDKKEDLLEPQEQLPPPPLPPPVSQVDAAIGLLMPPLQTPVNLSVFCDHNYTVEDTMHQRKRIHQLEQQVEKLRKKLKTAQQRCRRQERQLEKLKEVVHFQKEKDDVSERGYVILPNDYFEIVEVPA [C10F] it is 0.113; for MVQSCSAYGCKNRYDKDKPVSFHKFPLTRPSLCKEWEAAVRRKNFKPTKYSSICSEHFTPDCFKRECNNKLLKENAVPTIFLCTEPHDKKEDLCEPQEQLPPPPLPPPVSQVDAAIGLLMPPLQTPVNLSVFCDHNYTVEDTMHQRKRIHQLEQQVEKLRKKLKTAQQRCRRQERQLEKLKEVVHFQKEKDDVSERGYVILPNDYFEIVEVPA [L94C] it is 0.962.
Under MVQSCSAYGCKNRYDKDKPVSFHKFPNTRPSLCKEWEAAVRRKNFKPTKYSSICSEHFTPDCFKRECNNKLLKENAVPTIFLCTEPHDKKEDLLEPQEQLPPPPLPPPVSQVDAAIGLLMPPLQTPVNLSVFCDHNYTVEDTMHQRKRIHQLEQQVEKLRKKLKTAQQRCRRQERQLEKLKEVVHFQKEKDDVSERGYVILPNDYFEIVEVPA [L27N] stands 0.0759; under MVQSCSAYGCKNRYDKDKPVSFHKFPLTRPSLCKEWEAAVRRKNFKPTKYSSICSEHFTPDCFKRECNNKLLKENAVPTIFLCTEPHDKKEDLLEPQEQLPPPPLPPPVSQVDAAIGLLMPPLQTPVNLSVFCRHNYTVEDTMHQRKRIHQLEQQVEKLRKKLKTAQQRCRRQERQLEKLKEVVHFQKEKDDVSERGYVILPNDYFEIVEVPA [D134R], 0.265.
